In paper PMC8106667 (Molecular cell, 2021):

B1: GST-CDC6 wild type, full length (natural protein, human, UniProt Q99741 1-560, looked up)
chain: MPQTRSQAQATISFPKRKLSRALNKAKNSSDAKLEPTNVQTVTCSPRVKALPLSPRKRLGDDNLCNTPHLPPCSPPKQGKKENGPPHSHTLKGRRLVFDNQLTIKSPSKRELAKVHQNKILSSVRKSQEITTNSEQRCPLKKESACVRLFKQEGTCYQQAKLVLNTAVPDRLPAREREMDVIRNFLREHICGKKAGSLYLSGAPGTGKTACLSRILQDLKKELKGFKTIMLNCMSLRTAQAVFPAIAQEICQEEVSRPAGKDMMRKLEKHMTAEKGPMIVLVLDEMDQLDSKGQDVLYTLFEWPWLSNSHLVLIGIANTLDLTDRILPRLQAREKCKPQLLNFPPYTRNQIVTILQDRLNQVSRDQVLDNAAVQFCARKVSAVSGDVRKALDVCRRAIEIVESDVKSQTILKPLSECKSPSEPLIPKRVGLIHISQVISEVDGNRMTLSQEGAQDSFPLQQKILVCSLMLLIRQLKIKEVTLGKLYEAYSKVCRKQQVAAVDQSECLSLSGLLEARGILGLKRNKETRLTKVFFKIEEKEIEHALKDKALIGNILATGLP
B2: ORC1-180-240-HIS6 wild type (domain or fragment, human, UniProt Q13415 180-240, looked up)
chain: QESAAKCQKPVRAKSKSAESPSWTPAEHVAKRIESRHSASKSRQTPTHPLTPRARKRLELG

What was measured:
Experiment in all cases: pull-down
MBP-ORC2 = biological target: T1, MBP-ORC2 (human, UniProt Q13416 1-577)
T1 sequence (looked up): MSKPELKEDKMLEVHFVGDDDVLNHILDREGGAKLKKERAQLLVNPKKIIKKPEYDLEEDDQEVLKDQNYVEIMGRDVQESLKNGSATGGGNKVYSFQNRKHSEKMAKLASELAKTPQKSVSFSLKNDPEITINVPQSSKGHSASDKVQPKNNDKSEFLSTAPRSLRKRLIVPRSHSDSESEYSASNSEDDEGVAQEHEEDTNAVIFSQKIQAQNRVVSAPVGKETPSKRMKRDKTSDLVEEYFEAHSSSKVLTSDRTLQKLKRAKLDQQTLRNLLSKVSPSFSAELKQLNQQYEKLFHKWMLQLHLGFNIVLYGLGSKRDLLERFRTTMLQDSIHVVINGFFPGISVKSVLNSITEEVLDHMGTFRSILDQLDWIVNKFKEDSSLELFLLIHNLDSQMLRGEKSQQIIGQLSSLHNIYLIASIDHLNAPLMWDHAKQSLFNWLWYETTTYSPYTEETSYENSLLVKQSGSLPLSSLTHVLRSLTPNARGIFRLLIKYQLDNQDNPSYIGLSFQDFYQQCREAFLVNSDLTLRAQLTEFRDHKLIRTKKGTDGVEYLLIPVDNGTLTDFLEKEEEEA

[1] = biological target: T2, MBP-ORC1 wild type, full length (human, UniProt Q13415 1-861)
T2 sequence (looked up): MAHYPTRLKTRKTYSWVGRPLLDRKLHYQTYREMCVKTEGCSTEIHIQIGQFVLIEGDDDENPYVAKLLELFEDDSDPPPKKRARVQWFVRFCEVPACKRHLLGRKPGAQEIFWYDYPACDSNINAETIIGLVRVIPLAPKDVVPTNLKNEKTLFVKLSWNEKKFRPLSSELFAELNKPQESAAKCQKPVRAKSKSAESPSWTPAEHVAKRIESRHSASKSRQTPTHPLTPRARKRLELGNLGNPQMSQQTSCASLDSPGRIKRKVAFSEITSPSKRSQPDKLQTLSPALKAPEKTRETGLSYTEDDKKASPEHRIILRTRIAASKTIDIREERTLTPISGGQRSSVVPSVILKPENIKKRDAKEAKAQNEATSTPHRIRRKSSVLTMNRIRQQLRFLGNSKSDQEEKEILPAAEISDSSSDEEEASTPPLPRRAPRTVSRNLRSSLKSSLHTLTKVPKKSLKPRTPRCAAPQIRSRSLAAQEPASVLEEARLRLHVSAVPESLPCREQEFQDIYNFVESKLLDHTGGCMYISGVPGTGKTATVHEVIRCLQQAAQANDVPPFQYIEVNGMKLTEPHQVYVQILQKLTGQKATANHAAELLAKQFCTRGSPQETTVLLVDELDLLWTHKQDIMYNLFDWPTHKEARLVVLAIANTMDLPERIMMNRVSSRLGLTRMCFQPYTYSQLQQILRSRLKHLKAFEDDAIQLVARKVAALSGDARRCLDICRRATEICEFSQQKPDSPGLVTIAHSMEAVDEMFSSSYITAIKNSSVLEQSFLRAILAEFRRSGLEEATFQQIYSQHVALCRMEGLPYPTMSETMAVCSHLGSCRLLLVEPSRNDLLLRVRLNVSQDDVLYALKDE

MBP-ORC1 R105Q = biological target: T3, MBP-ORC1 R105Q (human, UniProt Q13415 1-861, R105Q)
T3 sequence (looked up): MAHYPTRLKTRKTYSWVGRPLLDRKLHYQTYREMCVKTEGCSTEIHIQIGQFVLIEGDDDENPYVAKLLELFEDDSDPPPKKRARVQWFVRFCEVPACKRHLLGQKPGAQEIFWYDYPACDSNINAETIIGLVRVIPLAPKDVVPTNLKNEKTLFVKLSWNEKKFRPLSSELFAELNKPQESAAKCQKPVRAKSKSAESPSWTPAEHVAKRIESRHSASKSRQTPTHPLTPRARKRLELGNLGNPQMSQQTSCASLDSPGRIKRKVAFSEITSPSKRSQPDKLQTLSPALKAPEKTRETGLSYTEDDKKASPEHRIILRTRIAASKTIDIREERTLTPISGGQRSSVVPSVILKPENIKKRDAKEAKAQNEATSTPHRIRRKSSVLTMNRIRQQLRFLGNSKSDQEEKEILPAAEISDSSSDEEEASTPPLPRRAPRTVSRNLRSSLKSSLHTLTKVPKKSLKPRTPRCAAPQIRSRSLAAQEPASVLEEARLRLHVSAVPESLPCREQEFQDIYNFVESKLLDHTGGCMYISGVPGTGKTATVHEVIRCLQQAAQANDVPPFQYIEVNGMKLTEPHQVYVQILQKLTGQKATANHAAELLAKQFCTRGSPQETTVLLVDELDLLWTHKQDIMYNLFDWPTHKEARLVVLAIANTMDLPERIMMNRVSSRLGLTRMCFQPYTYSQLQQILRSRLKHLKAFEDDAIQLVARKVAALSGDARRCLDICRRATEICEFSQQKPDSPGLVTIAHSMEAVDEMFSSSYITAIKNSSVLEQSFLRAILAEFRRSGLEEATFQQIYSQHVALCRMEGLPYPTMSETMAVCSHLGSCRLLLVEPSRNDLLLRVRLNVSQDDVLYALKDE

[2] = biological target: T4, MBP-ORC1-PSM123 (Phosphorylation Site Mutant, S258A, S273A and T375A) (human, UniProt Q13415 1-861, S258A | S273A | T375A)
T4 sequence (looked up): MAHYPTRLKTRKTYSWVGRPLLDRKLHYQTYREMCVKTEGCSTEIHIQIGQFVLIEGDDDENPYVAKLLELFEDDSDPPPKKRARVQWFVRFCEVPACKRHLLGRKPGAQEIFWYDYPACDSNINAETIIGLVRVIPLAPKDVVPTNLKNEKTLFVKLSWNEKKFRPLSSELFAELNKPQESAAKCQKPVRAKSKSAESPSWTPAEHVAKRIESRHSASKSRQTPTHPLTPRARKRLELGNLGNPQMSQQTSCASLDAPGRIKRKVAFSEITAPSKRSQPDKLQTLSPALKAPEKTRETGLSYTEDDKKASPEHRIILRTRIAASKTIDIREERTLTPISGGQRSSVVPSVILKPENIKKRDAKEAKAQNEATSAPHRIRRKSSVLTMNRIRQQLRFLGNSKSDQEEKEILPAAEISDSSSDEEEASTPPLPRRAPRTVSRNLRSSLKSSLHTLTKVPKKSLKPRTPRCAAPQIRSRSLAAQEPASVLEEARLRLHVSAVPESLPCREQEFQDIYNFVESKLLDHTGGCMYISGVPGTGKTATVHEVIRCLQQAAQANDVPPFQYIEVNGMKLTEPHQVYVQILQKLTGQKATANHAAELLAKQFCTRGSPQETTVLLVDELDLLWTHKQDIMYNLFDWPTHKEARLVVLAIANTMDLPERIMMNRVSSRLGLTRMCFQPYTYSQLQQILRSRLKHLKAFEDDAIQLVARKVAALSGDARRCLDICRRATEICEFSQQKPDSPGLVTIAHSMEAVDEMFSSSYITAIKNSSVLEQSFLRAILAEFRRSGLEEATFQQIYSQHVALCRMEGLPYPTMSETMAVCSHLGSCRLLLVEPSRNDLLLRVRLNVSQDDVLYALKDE

[3] = biological target: T5, MBP-ORC1-230-400 wild type (human, UniProt Q13415 230-400)
T5 sequence (looked up): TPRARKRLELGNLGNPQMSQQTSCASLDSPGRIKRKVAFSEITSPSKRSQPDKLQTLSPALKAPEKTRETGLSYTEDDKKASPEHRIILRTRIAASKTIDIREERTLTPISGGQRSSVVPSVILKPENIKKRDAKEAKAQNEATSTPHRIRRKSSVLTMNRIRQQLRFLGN

[4] = biological target: T6, MBP-ORC1-230-400 A-A (Cy motif mutant) (human, UniProt Q13415 230-400, K235A | L237A)
T6 sequence (looked up): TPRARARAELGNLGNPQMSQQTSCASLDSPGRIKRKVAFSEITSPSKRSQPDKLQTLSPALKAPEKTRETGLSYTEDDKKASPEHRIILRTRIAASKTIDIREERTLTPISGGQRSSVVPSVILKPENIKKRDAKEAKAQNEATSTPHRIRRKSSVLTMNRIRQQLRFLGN

[5] = biological target: B1
[6] = biological target: B2

**Q.** Does B1 bind (MBP-ORC2)?
**A.** binds

**Q.** Does B1 bind [1]?
**A.** binds

**Q.** Does B1 bind (MBP-ORC1 R105Q)?
**A.** binds

**Q.** Does B1 bind [2]?
**A.** binds

**Q.** Does B2 bind [3]?
**A.** binds

**Q.** Does B2 bind [4]?
**A.** binds

**Q.** Does B2 bind [5]?
**A.** binds

B3: MBP-ORC1-350-400 wild type (domain or fragment, human, UniProt Q13415 350-400, looked up)
chain: SVILKPENIKKRDAKEAKAQNEATSTPHRIRRKSSVLTMNRIRQQLRFLGN
**Q.** Does B3 bind [6]?
**A.** binds
